According to PMC3625156, “Biochemical Characteristics of New Delhi Metallo-β-Lactamase-1 Show Unexpected Difference to Other MBLs” (PLoS ONE, 2013):

Legend:
[1] = tested on: CC(C)(O/N=C(\C(=O)N[C@@H]1C(=O)N2C(C(=O)[O-])=C(C[n+]3ccccc3)CS[C@H]12)c1csc(N)n1)C(=O)O; assay: purified protein; type: biochemical, Klebsiella pneumoniae; conditions: Zn2+
[2] = tested on: CC1(C)S[C@@H]2[C@H](NC(=O)Cc3ccccc3)C(=O)N2[C@H]1C(=O)O; assay: purified protein; type: biochemical, Klebsiella pneumoniae; conditions: Zn2+
[3] = tested on: CCN1CCN(C(=O)N[C@@H](C(=O)N[C@@H]2C(=O)N3[C@@H]2SC(C)(C)[C@@H]3C(=O)O)c2ccccc2)C(=O)C1=O; assay: purified protein; type: biochemical, Klebsiella pneumoniae; conditions: Zn2+
[4] = tested on: CO/N=C(\C(=O)N[C@@H]1C(=O)N2C(C(=O)O)=C(COC(C)=O)CS[C@H]12)c1csc(N)n1; assay: purified protein; type: biochemical, Klebsiella pneumoniae; conditions: Zn2+
[5] = tested on: CO[C@@]1(NC(=O)Cc2cccs2)C(=O)N2C(C(=O)O)=C(COC(N)=O)CS[C@@H]21; assay: purified protein; type: biochemical, Klebsiella pneumoniae; conditions: Zn2+
[6] = tested on: C[C@@H](O)[C@H]1C(=O)N2C(C(=O)O)=C(S[C@@H]3CN[C@H](C(=O)N(C)C)C3)[C@H](C)[C@H]12; assay: purified protein; type: biochemical, Klebsiella pneumoniae; conditions: Zn2+
[7] = tested on: C[C@@H](O)[C@H]1C(=O)N2C(C(=O)[O-])=C(SC3Cn4cnc[n+]4C3)[C@H](C)[C@H]12; assay: purified protein; type: biochemical, Klebsiella pneumoniae; conditions: Zn2+
[8] = target: T1, New Delhi metallo-β-lactamase-1 (NDM-1) (Klebsiella pneumoniae, UniProt C7C422); assay: initial hydrolysis rate of […] substrate by purified enzyme at varied ZnSO4; type: biochemical
T1 construct: gene blaNDM-1; native (no fusion or tag) NDM-1
T1 sequence (C7C422 29-270 limits assumed): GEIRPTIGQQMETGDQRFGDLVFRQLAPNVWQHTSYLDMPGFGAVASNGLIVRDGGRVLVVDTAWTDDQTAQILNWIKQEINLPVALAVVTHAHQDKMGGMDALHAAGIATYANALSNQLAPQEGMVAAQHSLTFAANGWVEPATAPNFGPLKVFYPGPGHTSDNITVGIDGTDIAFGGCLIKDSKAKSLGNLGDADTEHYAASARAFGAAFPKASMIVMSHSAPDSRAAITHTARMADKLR

In the case of “New Delhi metallo-β-lactamase-1 (NDM-1) (Klebsiella pneumoniae)”, the Km [1] is reported as 74 µM, the kcat [1] is reported as 60.9 s⁻¹ and the kcat/Km [1] is reported as 830000 M⁻¹ s⁻¹. The Km [2] was 103 µM, the kcat [2] was 27.5 s⁻¹ and the kcat/Km [2] was 270000 M⁻¹ s⁻¹. For the same molecule, the Km [3] was 69 µM, the kcat [3] was 8.3 s⁻¹ and the kcat/Km [3] was 120000 M⁻¹ s⁻¹. It also gave a Km [4] of 43 µM, a kcat [4] of 31.5 s⁻¹ and a kcat/Km [4] of 740000 M⁻¹ s⁻¹. The Km [5] was 63 µM, the kcat [5] was 38.3 s⁻¹ and the kcat/Km [5] was 610000 M⁻¹ s⁻¹. The Km [6] was 42 µM, the kcat [6] was 30.8 s⁻¹ and the kcat/Km [6] was 730000 M⁻¹ s⁻¹. For the same molecule, the Km [7] was 155 µM, the kcat [7] was 106 s⁻¹ and the kcat/Km [7] was 680000 M⁻¹ s⁻¹.
For `CO/N=C(\C(=O)N[C@@H]1C(=O)N2C(C(=O)[O-])=C(C[N+]3(C)CCCC3)CS[C@H]12)c1csc(N)n1` [cefepime], the “initial hydrolysis rate of 0.5 mM substrate by purified enzyme at varied ZnSO4” value [8] was “The hydrolysis rates of cephem (ceftazidime and cefepime) were found to be very sensitive to the ZnSO4 concentration”.
